Measured values from patent US20240209100A1.
Like-named read-outs stand apart in the source and are kept apart here.

Experiments:
Test in all cases: cell-based or functional assay
[1] = molecular target: T1, IL-18 receptor (IL-18Rα/IL-18Rβ) on human PBMCs (human) (UniProt Q13478)
T1 sequence 1: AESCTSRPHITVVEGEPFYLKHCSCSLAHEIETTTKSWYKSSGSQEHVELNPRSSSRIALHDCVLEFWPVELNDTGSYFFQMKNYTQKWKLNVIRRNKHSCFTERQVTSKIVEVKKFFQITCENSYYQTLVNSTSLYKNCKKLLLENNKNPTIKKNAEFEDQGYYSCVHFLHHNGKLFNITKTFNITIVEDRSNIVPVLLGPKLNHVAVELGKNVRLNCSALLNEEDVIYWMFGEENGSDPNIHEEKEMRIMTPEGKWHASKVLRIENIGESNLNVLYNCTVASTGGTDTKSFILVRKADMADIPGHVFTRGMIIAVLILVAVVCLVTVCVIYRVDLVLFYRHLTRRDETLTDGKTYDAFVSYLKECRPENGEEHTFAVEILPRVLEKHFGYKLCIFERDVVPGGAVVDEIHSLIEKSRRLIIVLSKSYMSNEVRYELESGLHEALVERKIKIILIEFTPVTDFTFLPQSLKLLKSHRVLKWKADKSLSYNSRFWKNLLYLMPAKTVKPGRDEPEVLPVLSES
T1 sequence 2: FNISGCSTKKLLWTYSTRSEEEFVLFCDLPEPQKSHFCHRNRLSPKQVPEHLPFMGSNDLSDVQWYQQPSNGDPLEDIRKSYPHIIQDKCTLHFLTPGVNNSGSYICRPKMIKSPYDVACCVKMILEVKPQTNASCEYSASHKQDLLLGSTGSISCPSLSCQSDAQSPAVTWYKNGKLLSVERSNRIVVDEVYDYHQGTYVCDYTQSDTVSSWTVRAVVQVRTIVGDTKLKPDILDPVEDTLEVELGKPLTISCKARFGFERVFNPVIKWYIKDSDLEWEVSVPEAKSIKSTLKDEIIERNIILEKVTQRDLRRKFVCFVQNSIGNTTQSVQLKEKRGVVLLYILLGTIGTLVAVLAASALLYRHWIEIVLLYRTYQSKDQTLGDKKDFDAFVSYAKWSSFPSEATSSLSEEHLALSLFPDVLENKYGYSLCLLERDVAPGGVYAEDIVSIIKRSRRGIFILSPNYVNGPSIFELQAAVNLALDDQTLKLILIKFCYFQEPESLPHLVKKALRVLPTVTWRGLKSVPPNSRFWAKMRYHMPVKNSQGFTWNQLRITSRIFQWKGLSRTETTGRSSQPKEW

[2] = molecular target: T2, IL-18 receptor (IL-18Rα/IL-18Rβ) overexpressed on HEK-Blue IL-18 cells (Homo sapiens (Human)) (UniProt Q13478)
T2 sequence 1: T1 sequence 1
T2 sequence 2: T1 sequence 2

[3] = molecular target: T2, IL-18 receptor (IL-18Rα/IL-18Rβ) overexpressed on HEK-Blue IL-18 cells (Homo sapiens (Human)); remark: listed apart in the source
[4] = molecular target: T2, IL-18 receptor (IL-18Rα/IL-18Rβ) overexpressed on HEK-Blue IL-18 cells (Homo sapiens (Human)); remark: listed apart in the source
[5] = molecular target: T2, IL-18 receptor (IL-18Rα/IL-18Rβ) overexpressed on HEK-Blue IL-18 cells (Homo sapiens (Human)); remark: listed apart in the source
[6] = molecular target: T2, IL-18 receptor (IL-18Rα/IL-18Rβ) overexpressed on HEK-Blue IL-18 cells (Homo sapiens (Human)); remark: listed apart in the source

Chain of Human IL-18 (Q14116 37-193 limits assumed): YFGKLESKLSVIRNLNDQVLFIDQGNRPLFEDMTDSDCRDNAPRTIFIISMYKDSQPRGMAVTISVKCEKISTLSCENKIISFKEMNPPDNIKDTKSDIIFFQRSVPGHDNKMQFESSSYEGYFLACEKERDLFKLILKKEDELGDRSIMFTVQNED

PBMC IFNγ induction (24 h, with IL-12): EC50, Average [1]: 6.8
PBMC IFNγ induction (24 h, with IL-12): EC50, donor 1 [1]: 1.9
PBMC IFNγ induction (24 h, with IL-12): EC50, donor 2 [1]: 1.7
PBMC IFNγ induction (24 h, with IL-12): EC50, donor 3 [1]: 1.4
PBMC IFNγ induction (24 h, with IL-12): EC50, donor 4 [1]: 4.7
PBMC IFNγ induction (24 h, with IL-12): EC50, donor 5 [1]: 1.9
PBMC IFNγ induction (24 h, with IL-12): EC50, donor 6 [1]: 29.4
PBMC: calculated maximum induction of IFNγ after 24 hours, donor 1 [1]: 42000
PBMC: calculated maximum induction of IFNγ after 24 hours, donor 2 [1]: 5300
PBMC: calculated maximum induction of IFNγ after 24 hours, donor 3 [1]: 89000
PBMC: calculated maximum induction of IFNγ after 24 hours, donor 4 [1]: 69000
PBMC: calculated maximum induction of IFNγ after 24 hours, donor 5 [1]: 150000
PBMC: calculated maximum induction of IFNγ after 24 hours, donor 6 [1]: 28000
HEK-Blue IL-18: Abs 405 (Ave of 2) [2]: 2.6 Abs
HEK-Blue IL-18: Abs405 (Emax), Average (hu IL-18) [2]: 2.72 Abs
HEK-Blue IL-18: EC50 (M), Average (hu IL-18) [2]: 7.14e-14 M
HEK-Blue IL-18: Emax (Abs at 630 nm), Human IL-18 (1 ng/ml) (Abs at 630 nm) [2]: 3.25
HEK-Blue IL-18: Fold over background [2]: 22 fold
HEK-Blue IL-18: Abs405 [3]: 3.08 Abs
HEK-Blue IL-18: Fold over background [3]: 26 fold
HEK-Blue IL-18: Abs405 [4]: 3.1 Abs
HEK-Blue IL-18: Fold over background [4]: 13.6 fold
HEK-Blue IL-18: Abs 405 at 100 nM [5]: 3 Abs
HEK-Blue IL-18: Fold over background [5]: 13.2 fold
HEK-Blue IL-18: Abs 405 at 100 nM [6]: 2.6 Abs
HEK-Blue IL-18: Fold over background [6]: 14.4 fold
Substance: Human IL-18 (from UniProt Q14116 37-193) (ligand)
